Assay results: paper PMC4733052, “Heart of glass anchors Rasip1 at endothelial cell-cell junctions to support vascular integrity” (eLife, 2016)
Values belong to the binder of their own block, whether it stands above or below them.

B1: human Rap1 isoform Rap1B (residues 1–167), GMP-PNP-bound (natural protein, UniProt P61224 1-167, looked up)
chain: MREYKLVVLGSGGVGKSALTVQFVQGIFVEKYDPTIEDSYRKQVEVDAQQCMLEILDTAGTEQFTAMRDLYMKNGQGFALVYSITAQSTFNDLQDLREQILRVKDTDDVPMILVGNKCDLEDERVVGKEQGQNLARQWNNCAFLESSAKSKINVNEIFYDLVRQINR
notes: Rap1B, human, residues 1-167; Loaded with GMP-PNP; expression and purification as in Gingras et al., 2013; source: Escherichia coli strain CK600K (pTAC vector), purified, nucleotide exchanged for GMP-PNP
B2: recombinant Rasip1 RA domain (residues 134-285) (domain or fragment, human, UniProt Q5U651 134-285, looked up)
chain: EPPLATRATAPPGVLKIFGAGLASGANYKSVLATARSTARELVAEALERYGLAGSPGGGPGESSCVDAFALCDALGRPAAAGVGSGEWRAEHLRVLGDSERPLLVQELWRARPGWARRFELRGREEARRLEQEAFGAADSEGTGAPSWRPQK
notes: Rasip1, human, Ras-association (RA) domain residues 134-285; Cloned into pETM-11; also called Rasip1 RA domain wild-type; Rasip1 wild-type

Columns and labels:
[1] = molecular target: B2; assay: ITC; VP-ITC at 25°C; 335 μM GMP-PNP-bound Rap1B from the syringe into 30 μM Rasip1 RA domain (monomer concentration) in the cell; 20 mM Sodium Phosphate, 200 mM NaCl, 3 mM MgCl2, pH 6.5, 0.1 mM GMP-PNP; single-site fit; details: both partners purified
[2] = molecular target: the molecule itself; assay: SEC; Rasip1 RA domain alone (50 μM) on Superdex-75 (10/300); apparent mass against calculated monomer mass 16.3 kDa
[3] = molecular target: B1; assay: ITC; VP-ITC at 25°C; 335 μM GMP-PNP-bound Rap1B from the syringe into 30 μM Rasip1 RA domain (monomer concentration) in the cell; 20 mM Sodium Phosphate, 200 mM NaCl, 3 mM MgCl2, pH 6.5, 0.1 mM GMP-PNP; single-site fit; details: both partners purified
[4] = molecular target: T1, αIIb integrin cytoplasmic tail (Homo sapiens (Human), UniProt P08514, biotin on the in vivo biotinylation peptide tag); assay: pull-down (NeutrAvidin bead-immobilised tail peptide, Coomassie-stained SDS-PAGE)
T1 chain: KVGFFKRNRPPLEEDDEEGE

Binder: B1
- stoichiometry N [1]: 2 Rap1 monomers per Rasip1 dimer

Binder: B2
- stoichiometry N [2]: 2
- Kd [3]: 770 ± 90 nM

B3: recombinant Rasip1 RA domain (residues 134-285) R182E (domain or fragment, human, UniProt Q5U651 134-285, looked up)
chain: EPPLATRATAPPGVLKIFGAGLASGANYKSVLATARSTARELVAEALEEYGLAGSPGGGPGESSCVDAFALCDALGRPAAAGVGSGEWRAEHLRVLGDSERPLLVQELWRARPGWARRFELRGREEARRLEQEAFGAADSEGTGAPSWRPQK
notes: Rasip1, human, RA domain residues 134-285 with R182E; also called Rasip1(R182E); Rasip1 RA domain (R182E)
- binding result [2]: binds

- binding result [4]: no binding
B4: recombinant His-MBP-fusion Rasip1 central domain (residues 266-550) (protein)
chain: EAFGAADSEGTGAPSWRPQKNRSRAASGGAALASPGPGTGSGAPAGSGGKERSENLSLRRSVSELSLQGRRRRQQERRQQALSMAPGAADAQIGTADPGDFDQLTQCLIQAPSNRPYFLLLQGYQDAQDFVVYVMTREQHVFGRGGNSSGRGGSPAPYVDTFLNAPDILPRHCTVRAGPEHPAMVRPSRGAPVTHNGCLLLREAELHPGDLLGLGEHFLFMYKDPRTGGSGPARPPWLPARPGATPPGPGWAFSCRLCGRGLQERGEALAAYLDGREPVLRFRPR
